Results as given in the Immune Epitope Database (IEDB).

Key:
HLA-A*02:02 = experiment: IEDB peptide-MHC binding, purified MHC/competitive/radioactivity; filed as Kd, often an IC50 or EC50 that approximates it; ≥ and ≤ were set here for values at or beyond the usual limits of such assays
HLA-A*02:03 = experiment: as above
HLA-A*02:06 = experiment: as above
HLA-A*23:01 = experiment: as above
HLA-A*24:02 = experiment: as above
HLA-A*02:01 = experiment: IEDB peptide-MHC binding, purified MHC/direct/fluorescence; filed as Kd, often an IC50 or EC50 that approximates it; ≥ and ≤ were set here for values at or beyond the usual limits of such assays
HLA-A*69:01 = experiment: as above
HLA-A*26:01 = experiment: IEDB peptide-MHC binding, purified MHC/competitive/radioactivity; filed as Kd, often an IC50 or EC50 that approximates it; ≥ and ≤ were set here for values at or beyond the usual limits of such assays
HLA-A*30:02 = experiment: as above
HLA-A*01:01 = experiment: as above
[1] = source organism: Vaccinia virus WR
[2] = source organism: Dengue virus 3 Martinique/1243/1999
[3] = source organism: Mammarenavirus guanaritoense
[4] = source organism: Escherichia coli
[5] = source organism: Lymphocytic choriomeningitis virus (strain Armstrong)
[6] = source organism: Dengue virus 2 Jamaica/1409/1983
[7] = source organism: Dengue virus 4 Philippines/H241/1956
[8] = source organism: Dengue virus 1 Brazil/97-11/1997
[9] = source organism: Vibrio alginolyticus 12G01
[10] = source organism: SARS coronavirus Tor2
[11] = source organism: Brucella melitensis
[12] = source organism: Mammarenavirus brazilense

Row | Sequence | Kd (HLA-A*02:02; [1]) | Kd (HLA-A*02:03; [1]) | Kd (HLA-A*02:06; [1]) | other results
1 | SALMTLDDLA | 210 nM | 2320 nM | 193 nM | 
2 | AIFNNRNLAA | 450 nM | 103 nM | 774 nM | 
3 | NITRLEVIGL | 907 nM | 95.1 nM | 197 nM | 
4 | WFVERNMVI |  |  |  | Kd (HLA-A*23:01; [2]): 340 nM
5 | RVLYDEFVT | 2170 nM | 1410 nM | 1720 nM | 
6 | TLVDLCFWS |  |  |  | Kd (HLA-A*02:02; [3]): 57.9 nM; Kd (HLA-A*02:03; [3]): 523 nM; Kd (HLA-A*02:06; [3]): 134 nM
7 | VQLSNNKYVL | 288 nM | 9490 nM | 170 nM | 
8 | RYLEFEALGF |  |  |  | Kd (HLA-A*23:01; [2]): 4.68 nM; Kd (HLA-A*24:02; [2]): 38.1 nM
9 | GLLASAPGI |  |  |  | Kd (HLA-A*02:01; [4]): 6.3 nM; Kd (HLA-A*69:01; [4]): 974 nM
10 | LNVSYLCHL |  |  |  | Kd (HLA-A*02:02; [5]): 296 nM; Kd (HLA-A*02:03; [5]): 7100 nM; Kd (HLA-A*02:06; [5]): 13600 nM
11 | VTKSSSWKDV | ≥ 70000 nM | ≥ 41900 nM | ≥ 69800 nM | 
12 | IIMAINVFT | 39.3 nM | 180 nM | 10.3 nM | 
13 | GLTTHCTKL | 100 nM | 30 nM | ≥ 31600 nM | 
14 | EKVDAIDGEY |  |  |  | Kd (HLA-A*26:01; [6]): 9410 nM; Kd (HLA-A*30:02; [6]): 25.9 nM
15 | SMSQELAEL | 3.98 nM | 7.66 nM | 186 nM | 
16 | EWITDFVGKT |  |  |  | Kd (HLA-A*26:01; source organism: Dengue virus 3 Singapore/8120/1995): ≥ 28200 nM
17 | LTEIASLPT |  |  |  | Kd (HLA-A*01:01; [7]): 1470 nM
18 | RTPQDNQLTY |  |  |  | Kd (HLA-A*30:02; [6]): 1.02 nM
19 | AYQHALNEL |  |  |  | Kd (HLA-A*23:01; [7]): 2340 nM; Kd (HLA-A*24:02; [7]): 199 nM
20 | GTVLVQVKY |  |  |  | Kd (HLA-A*01:01; [8]): 1240 nM; Kd (HLA-A*30:02; [8]): 5110 nM
21 | NLTSTWVTY |  |  |  | Kd (HLA-A*01:01; [2]): 1710 nM
22 | VLLPFYETL | 4060 nM | 267 nM | 218 nM | 
23 | VVRGIDGGV |  |  |  | Kd (HLA-A*02:01; [9]): ≥ 20000 nM; Kd (HLA-A*69:01; [9]): ≥ 20000 nM
24 | NTTTFITVLT | 1960 nM | 596 nM | 600 nM | 
25 | FVDEFYAYL |  |  |  | Kd (HLA-A*02:02; [10]): 0.0886 nM; Kd (HLA-A*02:03; [10]): 2.62 nM; Kd (HLA-A*02:06; [10]): 0.36 nM
26 | FITVLTSVDI | 1420 nM | 237 nM | 1270 nM | 

Row | Sequence | Kd (HLA-A*02:02; [1]) | Kd (HLA-A*02:03; [1]) | Kd (HLA-A*02:06; [1]) | other results
27 | AVIPFDDIV | 313 nM | 241 nM | 42.4 nM | 
28 | SYKVASAGI |  |  |  | Kd (HLA-A*24:02; [7]): 105 nM
29 | PVETLFGSYI | 13700 nM | 11800 nM | ≥ 69800 nM | 
30 | FQESFYEDIA | 2560 nM | 555 nM | 303 nM | 
31 | YLSGTDDEVI | 6.26 nM | 211 nM | 947 nM | 
32 | KLIEYSDFA |  |  |  | Kd (HLA-A*02:02; [10]): 0.0948 nM; Kd (HLA-A*02:03; [10]): 0.534 nM; Kd (HLA-A*02:06; [10]): 0.705 nM
33 | IVDSMIIGHI | 507 nM | 208 nM | 561 nM | 
34 | TISWMMKLGI | 7840 nM | 972 nM | 2780 nM | 
35 | ETDLNQWMV |  |  |  | Kd (HLA-A*02:01; [11]): 163 nM; Kd (HLA-A*69:01; [11]): 0.8 nM
36 | DVIKSISSI | ≥ 63800 nM | 7520 nM | 15000 nM | 
37 | MFLITENKI |  |  |  | Kd (HLA-A*23:01; source organism: Dengue virus 1 Nauru/West Pac/1974): 162 nM
38 | MSPALFFTFL |  |  |  | Kd (HLA-A*02:02; [12]): 546 nM; Kd (HLA-A*02:03; [12]): 7630 nM; Kd (HLA-A*02:06; [12]): 834 nM
39 | ALVFLILCFT |  |  |  | Kd (HLA-A*02:02; [10]): 209 nM; Kd (HLA-A*02:03; [10]): 1120 nM; Kd (HLA-A*02:06; [10]): 229 nM
40 | VWEVEDYGF |  |  |  | Kd (HLA-A*23:01; [2]): 296 nM
41 | GVFEGIAVL |  |  |  | Kd (HLA-A*02:01; source organism: Mycobacterium tuberculosis variant bovis): 15.5 nM
42 | VTFINDYANL | 99.1 nM | 247 nM | 148 nM | 
43 | QLLKILDNL | 227 nM | 319 nM | 135 nM | 
44 | TVGMLIYSM | 490 nM | 6090 nM | 9170 nM | 
45 | ALLADKFPV |  |  |  | Kd (HLA-A*02:02; [10]): 29.1 nM; Kd (HLA-A*02:03; [10]): 604 nM; Kd (HLA-A*02:06; [10]): 22.8 nM
46 | NMCNSDVSV | 80 nM | 30.3 nM | 97 nM | 
47 | FLLPSLATV |  |  |  | Kd (HLA-A*02:02; [10]): 0.134 nM; Kd (HLA-A*02:03; [10]): 0.204 nM; Kd (HLA-A*02:06; [10]): 0.411 nM
48 | PMIIGEPIIV | ≥ 70000 nM | 8840 nM | ≥ 69800 nM | 
49 | WMDLLRALI |  |  |  | Kd (HLA-A*01:01; [7]): 9950 nM
50 | FISSFLLPLT | 38.6 nM | 44.2 nM | 50.6 nM | 
51 | RTWKVLSIM | 19100 nM | 2630 nM | ≥ 34000 nM | 
